Reference: paper PMC1088972, “Engineering a Dimeric Caspase-9: A Re-evaluation of the Induced Proximity Model for Caspase Activation” (PLoS Biology, 2005)
Numbering of substitutions follows the chain as printed. Names and notes keep the numbering of the source.

B1: engineered (dimeric) caspase-9 (Δ139, residues 140-416) (domain or fragment, UniProt P55211 140-416, looked up)
chain: GALESLRGNADLAYILSMEPCGHCLIINNVNFCRESGLRTRTGSNIDCEKLRRRFSSLHFMVEVKGDLTAKKMVLALLELAQQDHGALDCCVVVILSHGCQASHLQFPGAVYGTDGCPVSVEKIVNIFNGTSCPSLGGKPKLFFIQACGGEQKDHGFEVASTSPEDESPGSNPEPDATPFQEGLRTFDQLDAISSLPTPSDIFVSYSTFPGFVSWRDPKSGSWYVETLDDIFEQWAHSEDLQSLLLRVANAVSVKGIYKQMPCIVSMLRKKLFFKTS
notes: caspase-9, residues 140-416; prodomain and flexible linker removed; five residues of strand beta6 replaced by those of caspase-3 (Cys264-Ile-Val-Ser-Met268); Predicted dimer mass printed as 62,746 Da; written as one chain; also called engineered caspase-9 (Δ139); Δ139 dimeric caspase-9; source: E. coli BL21(DE3), vector pET-21b, purified (Ni-NTA, anion exchange Source-15Q, gel filtration …)
B2: dimeric caspase-9 (residues 140-416, C287S) (domain or fragment, UniProt P55211 140-416, looked up)
chain: B1 chain with C148S
notes: caspase-9, residues 140-416; five residues of strand beta6 replaced by those of caspase-3; catalytic Cys287 mutated to Ser; Crystallised form; the model holds residues 140-288 and 335-416 (chains A, C) and 140-289 and 337-416 (chains B, D); also called dimeric caspase-9 (C287S); source: E. coli BL21(DE3), vector pET-21b, purified (Ni-NTA, anion exchange Source-15Q, gel filtration Superdex-200)

Tests used:
[1] = target: the molecule itself; test: SEC; gel filtration of WT and engineered caspase-9 (Δ139, residues 140-416); unpublished data
[2] = target: the molecule itself; test: crystal structure; hanging-drop vapor diffusion, 100 mM MES pH 6.0, 5% PEG 5000 monomethyl ether, 3% tacsimate; space group C2; two molecules of the dimer in the asymmetric unit; molecular replacement

| Protein | stoichiometry N [1] | binding result [2] |
| --- | --- | --- |
| B1 | 2 |  |
| B2 |  | binds |
